From the DeepSol protein solubility set

Assay: soluble on expression in E. coli; label from the status in PepcDB or PDB records

Row | Sequence | soluble on expression in E. coli
1 | MSLIKWGFIGCGEVTKTKSGPAFQKVEHSEVVAVMSRDGAKAKAYAKERGIRKWYDDAQELIDDPEVNAIYIATPPSSHATYAIMAMKAGKPAYIEKPMAVTYEECTRINRISKETGVPCFVAYYRRYLPYFQKVKEMVENGSIGNVINVQVRFAQPPRDLDYNRENLPWRVQADIAGGGYFYDLAPHQIDLLQDMFGCILEASGYKSNRGGLYPAEDTLSACFQFDNGLVGSGSWCFVAHDSAREDRIEIIGDKGMICFSVFTYEPIGLHTERGREEICIGNPEHVQQPLIQAVVDHLLGKSVCSCDGESATLTNWVMDKILGKLEGHHHHHH | soluble
2 | MEIFEKIRSLRKNHNLSQEEIADKINLSVSGYRKIENGKSRINHKRLEQIAEALEVSPLDLIPNSWRHGSSVYQVGKNGFYGDSSRAIEIELLKQQIKQEQLIKAKDETIEDKNRLISRLEEMLKILNT | not soluble
3 | MFGKTLLRRIACSNLNLKSRKLSGKPRLAIVGSGPAGMFACNGLLRKSNFSVDVFENSPVPFGLVRYGVAPDHQEVKNVINTFDAMFEKNRERLKLFCNVNIGRDITFDELTRGYDAVLLAYGSYKTRTLDIPGSDASNVISGSEFVGWYNGVPNASTPDLTTSNVVIVGNGNVALDCARVLSTASSGLLRISDIPGDRLNVLEGANVKDIKILGRRGPEHVSFTIKELREQFKIKDWDSKLEISEIDAKNLTESLPKLERKKKRLTEVLVKNIGIANGLRQCHFIFHRIPEKIIADSNGKVQEIIVKNNETGQEETYPCGLLIYSIGYQTLVLDGVPQNDKKMIDMKDHCRVNMVAACSSQVYATGWCAHGPHGIIVDTQQQSIFVADQIAADFAQFKDSTSNGVEELLEDRKVPFISWDEWKQIDRQEQDTGKLSGKIREKFTTFEKFLTKLKKCN | not soluble
4 | MGSDKIHHHHHHMLADLPIALNPHEPTSIPTQLTEQIRRLVARGILTPGDPLPSSRSLSTQLGVSRGSVVTAYDQLAGEGYLSTARGSGTTINPDLHLLKPVEIEKKETSRSVPPPLLNLSPGVPDTATLADSAWRAAWREACAKPPTHSPEQGLLRLRIEIADHLRQMRGLMVEPEQIIVTAGAREGLSLLLRTMDAPARIGVESPGYPSLRRIPQVLGHETIDVPTDESGLVPRALPHDLNALLVTPSHQYPYGGSLPADRRTALVAWAEANDALLIEDDFDSELRYVGMPLPPLRALAPDRTILLGTFSSVITPQVACGYLIAPTPQARVLATLRGILGQPVGAITQHALASYLASGALRRRTQRLRRLYRHRRSIVQDTLGDLPNTQLRPINGGLHAVLLCDKPQDLVVTTLASRGLNVTALSHYWGGTGADNGIVFGFGSHDEDTLRWVLAEISDAVSLG | not soluble
5 | MGSDKIHHHHHHAQIKFRNHSVSVVSLNYDASNKTMLFRQGEEMMEMTNPAQVDTVIIGKRKFVPVGRGFYEVVCRKEGVVYIDWLLKDVNIGSKGALGTVTQGSVKNLQMSDLGLNGTEMYTPYERQKIGSTEVYRRKNDNTYYIKVEGKLEKVKSLKHLEKIFIGHKDEIRKFAKDHKIDMKDILDVFSILDYCMELEQ | not soluble
6 | MGSDKIHHHHHHMQLQELHMLVVLAEELNMRKAAERLFVSQPALSQRLQTIEKAWGTKIFLRSQKGLTVTPAGEKIIQFANDVTLEQERIRENIDELEGEIHGTLKLAVASIIGQHWLPKVLKTYVEKYPNAKISLITGWSSEMLKSLYEDQVHIGIIRGNPEWKGRKDYLMTDHLYLVDTEISCIEDIAHTERPFIQFKSDSTYFQEIQHWWHQKFKTSPKQTILVDQIETCKQMALHGIGYAILPSVTLQNEDKVNKMPLLDMKGHPIGRDTWLLGYEPAFELKQVQAFVQVIKDMLDQENPF | not soluble
7 | MAHHHHHHSLKKPTHSGSGQIRIIGGQWRGRKLPVPDSPGLRPTTDRVRETLFNWLAPVMVDAHCLDCFAGSGALGLEALSRYAAQATLLEMDRAVSQQLQKNLATLKANNARVVNTNTLTFLSQPGTPHHVVFVDPPFRKGLLEETLQLLETQGWLADDALIYVESEVENGLPPVPANWALYREKVAGQVAYRLYQRDAQGENDVD | soluble
8 | MGSDKIHHHHHHMSKDCTIQDVFHRFYSSFESTHSISPAQRKAAYHIMNCKTGAFGVNVSVCEDCGCISVHYNSCRDRCCPMCQEFPKEKWVDARREDILDAPYFHVVFTVPEELNPIIYSNQKFLYAALYHAASDTLSELAADSKYLGTDIGYICILHTWGSTMNFHPHIHAIVLGGGLDVKNHWKDNGKDFFLPIKVISKTFRGKYMAELKQLWENDRLEFHGSAAPYKNHYTFKELLNTCYAKEWIPYCKKPFDGAESVIRYLGKYTHRIAISNYRIKDMTESTVTFSAKDYKNQGLWKEITISGEEFIRRFLMHVPPKRFVRIRHYGLLSSRNKKKKITLCRNILGCKKYISKLKDMDAPAIIRLLYNKDICKCSSCGGKIIPLPTEQHFIKPKPHMLC | not soluble
9 | MIIGIDVGGTNTDAAIVSDEIKTIKLPNEAGIGGILKEISKEANLIEEKVVVSTSWPLNLIISKFSESRTLSLVIPGPGLNYSEYGEVLKGYVNHRGDVVEDIDEYEIAAIFRENSYDNVAISSKFSVRNGSLEDRVAEIVRNYVEDYRIALSHYAGGMNYPARIHTTVVNAKIRETVYRLTELIKAYAGDFYYFKGDGGIVPYTIALNNPSELYNSSPAAVALGAVYLTGEKNALVVDIGGTSTDFVEVIDGMPKIVEGIELAGRKTLIRCVDSVSIPFGGDSVVENGKLVPVCSKPIAFGGESFTLTDALNCAGYEIGDYRSSRKYECDVEKALNQFVSLAATTVREIGCKKIVGTGYLAPYLIPEVAKAAGVEYVIPDHYESANAVGVAVSRVSLTLYVRIDTEKCFAAYNGHTESCPFKPGSLPDDEQILEVAKEKVVEVAKKFGASEEELGKVRTVYFNSFTVVRGGMKRGVIADVIVQIEPGIRYGGLAAALEHHHHHH | not soluble
10 | MVFSGPASPGLTLAPLRRGGIDPCYRVDAAGAIWRTSLMPSGPVTARITRAATDAADCQAWGEGADEFIDRLPALLGVDDDASDFAPAEPTIAKARRQVPHLRLGRTGRMLEALIPAIIEQRVYGLDAWRAWRALVTKFGTPAPGPAPDGMRVVPSAEVWRRIPSWEFHRANVDPGRARTIVMCAQRADSLERLTHERAAVTLRSLPGVGEWTAAETMQRVFGDADALSAGDYHLATLVGQALTGEPVDDAGMVELLEPMRPHRHRAVRLLEASGMFVYRRRGARQAIPKLRTL | not soluble
11 | MTQVIIDGDACPVTNSIIELTKGTGIFVTVVRSFSHFSTVIQPEHVNIIYVDDGPDAVDYRIVKLVHSDDLVVTQDYGLASLLLNKAKIVMHHKGFIYNQENINTLLEQRHASAQFRKSGLEHHHHHH | not soluble
12 | DAMNVMPVLAEIRERKAAHRAGMPSHVINFTLLPMNAVDMAHLQATLGNGPIQLHSRGYGSCRVLATATRDVWSVQFLNAMDTMILDTLEIGDVPAAACAADEDFSDSAERLGEIIEAYFE | not soluble
13 | MGSDKIHHHHHHMKIVKISPRGYCYGVVDAMVIARNAALDTSLPRPIYILGMIVHNKHVTDAFEEDGIITLDGPSRLDILDKIDSGTVIFTAHGVSPEVKQRAKEKGLTTIDATCPDVTKTHDLIEAKKAEGYHVIYIGKKNHPEPEGAVGIAPDIVHLIERADDLKTLEIPTDKILVTNQTTMSQWDVQHLMEDIQKKFPTAEFHKEICLATQVRQEAVAKQADVADLTIVVGDPKSNNSNRLAQVSQEIAGTKAYRVADVSEIKLEWLQGVENVAVTAGASTPTPITKEVIAFLEQYDPMNPATWERVRKVPLQKILPRVKVKKEQ | not soluble
14 | MRDGEGIWGRGRTGGHAHPKEAMHTTFFILGGTMLIGVISDTHLYDRAFELPKAVFDEFSNVDLIIHCGDVTDKEILDSLKDLAKVVAVKGNMDYLNLPRKEILEINDIKIGVIHGDVVYPRGDRLKLRLLGKEMGVDVLISGHTHTPFIDDCRDILLLNPGSPTVPRCPLKSIMKLSVEDKLEAKLIPIEE | soluble
15 | MRIEEDLKLGFKDVLIRPKRSTLKSRSDVELERQFTFKHSGQSWSGVPIIAANMDTVGTFSMASALASFDILTAVHKHYSVEEWQAFINNSSADVLKHVMVSTGTSDADFEKTKQILDLNPALNFVCIDVANGYSEHFVQFVAKAREAWPTKTICAGNVVTGEMCEELILSGADIVKVGIGPGSVCTTRVKTGVGYPQLSAVIECADAAHGLGGMIVSDGGCTTPGDVAKAFGGGADFVMLGGMLAGHEESGGRIVEENGEKFMLFYGMSSESAMKRHVGGVAEYRAAEGKTVKLPLRGPVENTARDILGGLRSACTYVGASRLKELTKRTTFIRVQEQENRIFNNL | soluble
16 | PKQRCRAPACDHFGNAKCNGYCNECFQFKQMYG | soluble
17 | MGSDKIHHHHHHMINLSKKLIRQVAQANAKFGLIKDGDRVLLGLSGGKDSLALAHLLNRMQAHAPFKFELEAVTLSYGMGEDYSHLHAHCEEHGIKHSVLDSNIYEVSGDTIRENSSFCSYFSRMRRGALYTYALEKGFNKLAIAHHLDDAAESFFMNFIHNGALRTLAPIYQSKRGITVIRPLIFVRERQLRDNATQNELSVIGNEFCPGMKLSEKNVKFPHAREEAKQLLANLEKDHPKLFTSLKTAFANLHTESFWLQKA | not soluble
18 | VDRLHIIGDIFDRGPRADIIMDKLEEYHAVDIQWGNHDILWMGAASGSSVCMANVIRISARYANLSTIEDGYGINLLPLATFAMDFYGNDKCKNFEPKIESDKSYTVKEIELIGKMHKAIAIIQFKLEGEAIKRHPEFKMEHRMLLNKINFEDSTIELDGKKYKLNDTSFPTIDKNDPYKLIDEEREVVEKLRSSFVNSEKLNRHVRFLFSHGNLYLKFNSNLLYHGCIPLNEDGTFKEVLIGSHKYKGKALLDKLDVLARKSFFYEENSKNSKYENDMIWYLWSGPFSPLFGKEKMTTFERYFIDDKKTHYEKKDPYYHYRDDEDICINILREFGLDSEQAHIINGHVPVESKNGENPIKANGKLIVIDGGFSKAYQSKTGIAGYTLIYNS | not soluble
19 | MAHHHHHHMYVAIYNIGKKKNIGSIVRSCVAFRVSKIFVVSRKKNQVNFFGHMGTCEYITIEYFSSMKELKTHLRDNGILLYACEITSSAVPVTRRPFENKDTAFLFGNEGTGINDETLSYCDKVVYIPQYGNGTCSLNVSVSCAIILHHFAVWADYPEVGISGKKFVLNKCATKLERYLNPSDDLLRQISEKRAQRAATKLASPDWAAPHFADPSPDLFPG | not soluble
20 | MTVITEPARQTPVIHNTDVLVVGSGPGGLAAALAAARAGVDVCLVERFGCFGGNITVVGVEGFAWYRHEATVEAGGIGREFEDRAREMGAAVPESQSLSYEIDSEGFKLVADRLVEEAGVHGMLHRQFVAPVMEGDRVAGIIVESKAGREAILARVVIDATGDADVAHRAGAPTLKTPAEHMQAASVMFHLAGVDKAAFMAEVRRDPQTYKDWSTGEWTVETDGKEDDMFSPFLKKPFAKAIEEGVIPPHLNTIAGTWGAMHDTGELTYMNLVHLAGVDGTDPDSLTQGEIEGRRQAMLAIEALRRFMPGCGGVRLRNFGMTIGIRDTRKIRAAYDMTETDVRQQGRFDDSIGIYPEFIDGYGVLIIPTTGRYMQIPYRAVLPGKVKGLLVAGRAIGGDRIAHAATRNMACCAVAGQGAGVAAALAVKTGCDVAQVDMAGVQAELLRQGVRIALEHHHHHH | not soluble
21 | MTLGTALKQARKAQQLNQKQAARGICAQSMLSAIENDRYVPNARLLLALCQRLGVAVSTLSLADDFEISAEQAFNDRVRQMCNAHQYQQLKDWLLQPTTLEHVQTDEQTQAYYYYLGVACWQVDRTSDAAQQNLRLAIGMAAPSSPPTTLTRLALISLAVVKAHHHPQAPVAALVTRALADIDAGAYEENANIVFYLAGLVAYEQHDSQLAVARLTQGLAFATTHDSHYMLANIYQLMAQLAMAAGETATAQVASQRSQVFKDLFKEQINDRL | not soluble
22 | MERGRSDMEMINNMANCLILLSKAHQNDTKSRVFACKTCNKEFPSFQALGGHRASHRRSAALEGHAPPSPKRVKPVKHECPICGAEFAVGQALGGHMRKHRGGSGGGGGRSLAPATAPVTMKKSGGGNGKRVLCLDLNLTPLENEDLKLELGRFIF | soluble
